Measurements reported in the DeepSol protein solubility set.

Experiment: soluble on expression in E. coli; label from the status in PepcDB or PDB records

Sequence | soluble on expression in E. coli
MIKIDNVKKFYTDKVKIGPLDIEIPKAGFTSLIGPNGAGKSTTLLMIGRLLDMDEGQIQVANMDVSESKSKDLAKVLTILRQENHFVTRLTVRQLVGFGRFPYSKGRLTKEDEVIISKYIDFLDLTNLENRYLDELSGGQRQRAYVAMVLCQETEYVLLDEPLNNLDVARSVQMMEHLRRAANEFGRTILTVMHDINFAAKYSDKICAMKDGQIAAFGTVEEVMDSTLLTDIFETRIEIIKGPYGPIAVY | not soluble
MGSDKIHHHHHHMRNYCRWCENDPLLIAYHDKEWGQREGNDQRLFEAMCLELFQSGLSWKTVLQKRDSIRKAFHHFELEKVATMNEQDVERLLKDKGIIRHRKKIEATIQNSRNVVRLQREFGSFREWIESLPNDVEAKAAMISEMFTYMGPITAKSFLEATGFIPVEHDKQCHLFEGKSLQIKPIGTADRGEVQQFFHQHWGSPEMVLSTGVFHCERLPGFLYRNKLGEIIGLITYVTHGKRSIEIISLDSVEEGKGIGTSLLQAVEAEAIEQQVRQIEVITTNDNLHALGFYQKRGFQLKELVVNGVEKARQLKPSIPRKSADGIPIRDELKLVKTMR | not soluble
MPLVSLIIRCYNEEKHIGRLLSGVMQQQGIDYEIIIVDSGSTDATVSIAQRYPIQLISIDPQNFSFGRSLNLGCQQASGEYLVFASAHVYPVYQDWLKQLIAPLQTNPQIALSYGKQRGNNQTQFSEHQIFAQWFPDQAQIPQTTPFCNNANAAIRRDLWQKYPYNEDLTGLEDLDWAKRLMQAGYQIAYVPDAEIIHVHQETPQRVRNRYRREAIALKQIFPEQTFSLGDFVRLTVSNTLSDYYYAWQSQQLMTQLWAIPQFRLMQFWGTYQGYHQNNSLNQQLRQTFYYPRPINTITPNVPSKDALKINYAQSDTQLVPDPSPPSPHQLEHHHHHH | soluble
MNSPLDVKDLIDLGRDPVVVFNPPSIGTPDRIERYHAALEWLIGRERPFVLVTRADGDEASESHEDRKSRAVWFKNNLMALAQVCRGFVYVEQDEARRAAWQVRAEGMAKTFPVPMIIAGDMEAAITQALDLVKASRDPAPGGSPHA | not soluble
MARNRLTESEMNEALRALDGWQKVDGREAITRSFKFKDFSTAFGFMAQAALYAEKLDHHPEWFNAYNRVDVTLATHSENGVTELDIKMARKMNAIAG | soluble
MGSDKIHHHHHHMEVAEGEFKPAFPIKPAQQLVFVHIPKCGGTSMHQFLANAKKVQPEPELSTILAGYCEPALHKHSKAAVIRDLVGPALWQTIFTFSVVRNPWDLMLSSYRWWLQKAGRFSSLRAQADEVADLGSFEGFLKSDFGGNRINECEGDILSWLSDENGQEIVDFVGRLEDIEQALQNVFERAGLAGYSEFPRLNSTVRGGYQDYYNAETKRLIQTRFQATIDRFEYQF | not soluble
MLQINQMFSVQLSLGEQTWESEGSSIKKAQQAVANKALTESTLPKPVQKPPKSNVNNNPGSITPTVELNGLAMKRGEPAIYRPLDPKPFPNYRANYNFRGMYNQRYHCPVPKIFYVQLTVGNNEFFGEGKTRQAARHNAAMKALQALQNEPIPERSPQNGESGKDMDDDKDANKSEISLVFEIALKRNMPVSFEVIKESGPPHMKSFVTRVSVGEFSAEGEGNSKKLSKKRAATTVLQELKKLPPLPVVEKPKLFFKKRPKTIVKAGPEYGQGMNPISRLAQIQQAKKEKEPDYVLLSERGMPRRREFVMQVKVGNEVATGTGPNKKIAKKNAAEAMLLQLGYKASTNLQDQLEKTGENKGWSGPKPGFPEPTNNTPKGILHLSPDVYQEMEASRHKVISGTTLGYLSPKDMNQPSSSFFSISPTSNSSATIARELLMNGTSSTAEAIGLKGSSPTPPCSPVQPSKQLEYLARIQGFQAALSALKQFSEQGLDPIDGAMNIEKGSLEKQAKHLREKADNNQAPPGSIAQDCKKSNSAV | soluble
MQRMAKMKAMEKHHGYKVLTMIHRREMISLFGLPAYQSIDEEDAEQVLRWIRKYRDYPLELILHTPGGQLHASIQIARALKNHPKKTRVLIPHYSMSGGTIIALAADEIVMDKDAVIGPIDPQVGDPIRGVFPAPSWIHAAETKKEDADDSTLVMSDISRKALRLTRNVAKELLEGKIQPDGKEDRLEEVVEKLVSGEMIHSTPLSAREAKELGLSVNTDFPEDVHDFMRLFRPVKKTVEYVG | not soluble
MMRGSHHHHHTDPISYIIRKADSVNKALDSAVPLREPLKIHEAMRYSLLAGGKRVRPVLCIAACELVGGEESLAMPAACAVEMIHTMSLIHDDLPCMDNDDLRRGKPTNHKVYGEDVAVLAGDALLSFAFEHLASATSSEVSPARVVRAVGELAKAIGTEGLVAGQVVDISSEGLDLNNVGLEHLKFIHLHKTAALLEASAVLGGIIGGGSDEEIERLRKFARCIGLLFQVVDDILDVTKSSKLTYPKLMGLEKSREFAEKLNTEARDQLLGFDSDKVAPLLALANYIANRQN | soluble
AAEGERAEPLRPSQSGARPCRAVGNMHFSIPETESRSGDSGGSAYVAYNIHVNGVLHCRVRYSQLLGLHEQLRKEYGANVLPAFPPKKLFSLTPAEVEQRREQLEKYMQAVRQDPLLGSSETFNSFLRRAQQETQQVPTEEVSLEVLLSNGQKVLVNVLTSDQTEDVLEAVAAKLDLPDDLIGYFSLFLVREKEDGAFSFVRKLQEFELPYVSVTSLRSQEYKIVLRKSYWDSAYDDDVMENRVGLNLLYAQTVSDIERGWILVTKEQHRQLKSLQEKVSKKEFLRLAQTLRHYGYLRFDACVADFPEKDCPVVVSAGNSELSLQLRLPGQQLREGSFRVTRMRCWRVTSSVPLPSGSTSSPGRGRGEVRLELAFEYLMSKDRLQWVTITSPQAIMMSICLQSMVDELMVKKSGGSIRKMLRRRVGGTLRRSDSQQAVKSPPLLESPDATRESMVKLSSKLSAVSLRGIGSPSTDASASDVHGNFAFEGIGDEDL | soluble
MAHHHHHHMKPEGAKGAVVSDDVGGDSANLAYCSDRITLLSRADIEAFTCCSNGAGGGGASNSENHNGGCGGLASEAQSVDPCSTLDTCIAALPMFLQSEALVLRRHEQQFRHHMKELVELTECITLLCDGSLRQHAAAVAGQPAEQSADAQRAESAALHRMLHRAEELERYVRAAAVERLRSAQRMVLAASTTKRREKVGRKSAVRPPKATK | not soluble
MLSEGTHLRPYETLGAHADTMDGVTGTRFSVWAPNARRVSVVGQFNYWDGRRHPMRLRKESGIWELFIPGAHNGQLYKYEMIDANGNLRLKSDPYAFEAQMRPETASLICGLPEKVVQTEERKKANQFDAPISIYEVHLGSWRRHTDNNFWLSYRELADQLVPYAKWMGFTHLELLPINEHPFDGSWGYQPTGLYAPTRRFGTRDDFRYFIDAAHAAGLNVILDWVPGHFPTDDFALAEFDGTNLYEHSDPREGYHQDWNTLIYNYGRREVSNFLVGNALYWIERFGIDALRVDAVASMIYRDYSRKEGEWIPNEFGGRENLEAIEFLRNTNRILGEQVSGAVTMAEESTDFPGVSRPQDMGGLGFWYKWNLGWMHDTLDYMKLDPVYRQYHHDKLTFGILYNYTENFVLPLSHDEVVHGKKSILDRMPGDAWQKFANLRAYYGWMWAFPGKKLLFMGNEFAQGREWNHDASLDWHLLEGGDNWHHGVQRLVRDLNLTYRHHKAMHELDFDPYGFEWLVVDDKERSVLIFVRRDKEGNEIIVASNFTPVPRHDYRFGINQPGKWREILNTDSMHYHGSNAGNGGTVHSDEIASHGRQHSLSLTLPPLATIWLVREAE | soluble
MDNPVTFSDITLLNTLATCANMTTDEVFKDFKIMANKKILKNHKYEIYYSESEKSWRTYLPDETKPNKRRPVKRKSKENLEKEIIRFYIEKQKAENRQNVTLEELYAEWLLYKRDYTSVKAKTIQEYVSEWNRFFKDTELVKMKIGEIKPITLIRFFREATKDRQFTHKRVSNARSVLNGIMSYAIEEEIISHNPVSDVNFKQFTYKPVEVQSDNVFSRDDTHKLLNYLRCIIEPYSLAIQLSFYLFIRVGETKAIRWEDIDYNNRLVYFHRQATCERTLNDDLTFSSRKVKVVNQMKGNTSHGFRKQFLTDEALKILHKAKELNPNGIYVFEPNGEIMTTDSFNRRLKKYCKEAGVPYHSSHKIRFYNASTAFDGNNLTTLSYLMGHSETATTLHYLRNVNKRKNDRLAFQNLGISS | not soluble
SLSAAEADLAGKSWAPVFANKNANGDAFLVALFEKFPDSANFFADFKGKSVADIKASPKLRDHSSTIFTRLNEFVNNAANAGKMSAMLSQFAKEHVGFGVGSAQFENVRSMFPGFVASVAAPPAGADAAWTKLFGLIIDALKAAGK | soluble
